Tests used:
Test in all cases: cell-based or functional assay
[1] = target: KLK5 (#1108-SE-010, R&D Systems) (UniProt Q9Y337)
[2] = target: recombinant thrombin (#1473-SE-010, R&D Systems) (UniProt P00734)
[3] = target: matriptase (#3946-SE-010, R&D Systems) (UniProt Q9Y5Y6)
[4] = target: Factor Xa (#1063-SE-010, R&D Systems) (UniProt P00742)
[5] = target: activated hepsin (#4776-SE-010, R&D Systems) (UniProt P05981)
human TMPRSS2 (human) = human TMPRSS2 (human) (UniProt O15393)
[6] = target: recombinant N-terminal His-tag HGFA serine protease domain (UniProt Q04756)
recombinant N-terminal His-tag HGFA serine protease domain, sequence (Q04756 373-655, form in doubt): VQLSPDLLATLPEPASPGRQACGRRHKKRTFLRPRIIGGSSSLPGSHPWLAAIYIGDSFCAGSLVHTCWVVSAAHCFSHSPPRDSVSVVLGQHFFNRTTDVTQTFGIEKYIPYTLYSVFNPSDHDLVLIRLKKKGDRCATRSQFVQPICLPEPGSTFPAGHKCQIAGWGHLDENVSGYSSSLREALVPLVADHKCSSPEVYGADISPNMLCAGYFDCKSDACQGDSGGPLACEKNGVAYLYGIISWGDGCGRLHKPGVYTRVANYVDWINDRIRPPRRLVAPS

matriptase (#3946-SE-010, R&D Systems), sequence (Q9Y5Y6 615-855 limits assumed): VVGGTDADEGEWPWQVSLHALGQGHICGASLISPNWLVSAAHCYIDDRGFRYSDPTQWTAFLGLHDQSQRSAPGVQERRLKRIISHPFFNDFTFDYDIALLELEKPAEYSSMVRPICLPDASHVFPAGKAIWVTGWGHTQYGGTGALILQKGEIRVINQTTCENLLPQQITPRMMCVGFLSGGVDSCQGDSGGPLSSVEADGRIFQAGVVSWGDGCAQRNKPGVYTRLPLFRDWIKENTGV
activated hepsin (#4776-SE-010, R&D Systems), sequence (P05981 45-417 limits assumed): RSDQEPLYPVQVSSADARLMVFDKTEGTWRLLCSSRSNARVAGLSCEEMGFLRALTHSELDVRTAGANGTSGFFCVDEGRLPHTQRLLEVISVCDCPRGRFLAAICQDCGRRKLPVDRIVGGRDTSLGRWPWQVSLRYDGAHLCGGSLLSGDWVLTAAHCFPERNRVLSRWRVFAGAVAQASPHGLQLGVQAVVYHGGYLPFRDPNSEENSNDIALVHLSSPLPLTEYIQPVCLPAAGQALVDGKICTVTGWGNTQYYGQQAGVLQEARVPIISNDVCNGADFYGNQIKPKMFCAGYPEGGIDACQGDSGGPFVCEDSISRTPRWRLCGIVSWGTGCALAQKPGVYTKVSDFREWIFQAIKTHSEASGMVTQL
human TMPRSS2 (human), sequence (O15393 whole entry, the tested form may be a part): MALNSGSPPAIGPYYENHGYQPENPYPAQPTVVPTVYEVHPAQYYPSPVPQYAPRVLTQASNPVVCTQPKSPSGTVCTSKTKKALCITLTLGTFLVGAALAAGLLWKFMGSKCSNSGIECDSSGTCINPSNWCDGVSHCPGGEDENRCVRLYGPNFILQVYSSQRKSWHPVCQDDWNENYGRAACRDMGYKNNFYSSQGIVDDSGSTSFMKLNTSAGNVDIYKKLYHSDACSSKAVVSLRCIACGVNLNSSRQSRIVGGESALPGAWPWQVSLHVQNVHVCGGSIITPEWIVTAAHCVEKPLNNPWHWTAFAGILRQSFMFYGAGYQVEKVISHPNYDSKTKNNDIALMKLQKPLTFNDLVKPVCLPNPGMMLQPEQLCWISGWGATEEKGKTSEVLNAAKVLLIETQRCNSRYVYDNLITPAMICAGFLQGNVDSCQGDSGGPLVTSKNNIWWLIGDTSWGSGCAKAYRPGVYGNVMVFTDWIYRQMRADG
Factor Xa (#1063-SE-010, R&D Systems), sequence (P00742 41-488 limits assumed): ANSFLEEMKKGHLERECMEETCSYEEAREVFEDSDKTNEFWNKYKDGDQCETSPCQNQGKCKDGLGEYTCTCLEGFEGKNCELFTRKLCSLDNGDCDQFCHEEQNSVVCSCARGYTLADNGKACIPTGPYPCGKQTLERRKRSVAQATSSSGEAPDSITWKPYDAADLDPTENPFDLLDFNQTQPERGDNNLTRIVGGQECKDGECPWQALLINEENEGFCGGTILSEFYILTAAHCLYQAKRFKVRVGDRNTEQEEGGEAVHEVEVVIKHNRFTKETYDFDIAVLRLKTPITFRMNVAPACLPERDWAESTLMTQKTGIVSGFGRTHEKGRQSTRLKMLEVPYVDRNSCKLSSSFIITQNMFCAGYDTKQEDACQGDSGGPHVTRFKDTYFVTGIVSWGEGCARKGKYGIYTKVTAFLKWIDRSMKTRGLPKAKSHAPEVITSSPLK
KLK5 (#1108-SE-010, R&D Systems), sequence (Q9Y337 23-293 limits assumed): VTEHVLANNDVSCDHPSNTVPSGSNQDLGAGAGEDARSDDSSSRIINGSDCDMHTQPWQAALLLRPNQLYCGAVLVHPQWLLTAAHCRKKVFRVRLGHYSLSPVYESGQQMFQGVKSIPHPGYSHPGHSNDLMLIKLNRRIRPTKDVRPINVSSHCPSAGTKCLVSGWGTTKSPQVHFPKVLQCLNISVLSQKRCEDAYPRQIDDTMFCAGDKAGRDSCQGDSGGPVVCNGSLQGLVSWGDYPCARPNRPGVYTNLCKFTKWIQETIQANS

| KLK5 IC50 [1] [nM] | Thrombin* (IC50 nM) [2] [nM] | Matriptase (IC50 nM) [3] [nM] | Matriptase IC50 [3] [nM] | Factor Xa* (IC50 nM) [4] [nM] | Hepsin (IC50 nM) [5] [nM] | Hepsin IC50 [5] [nM] | Calu-3 EC50 (human TMPRSS2 (human)) [nM] | HGFA (IC50 nM) [6] [nM] | HGFA IC50 [6] [nM] | Substance |
| --- | --- | --- | --- | --- | --- | --- | --- | --- | --- | --- |
| > 20000 | – | – | – | – | – | – | – | – | – | Leupeptin (peptide) |
| – | > 20000 | 80.2 | 14 | 8810 | 102 | 20 | 565 | > 20000 | > 20000 | Cyclo(allylLY)R-kbt, VD4051 (peptide) |

From patent US20220380407A1
